Test results from the nanobody polyreactivity screen of Harvey et al. (2022).

Test: yeast display, Sf9 membrane polyspecificity reagent, FACS + sequencing; frameworks hold sequencing errors
Method in brief: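 After 36–48 hours of galactose induction, yeast (Saccharomyces cerevisiae BJ5465) displaying a synthetic nanobody library were stained at 4 °C for 1 hour with 10% biotinylated, detergent-solubilized Sf9 membrane reagent. Streptavidin microbeads enriched the stained cells before FACS sorting into low and high (top ~1%) gates on anti-HA and streptavidin fluorescence. Each clone's polyreactivity label reflects its gate of origin.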

| Sequence | polyreactivity (PSR sort gate) |
| --- | --- |
| QVQLVESGGGLVQAGGSLRLSCAASGRIFTYNAMGWYRQAPGKERELVAASSRRGGTTYYADSVKGRFTISRDIAKITVYLQMNSLKPEDTAVYYCAARGQYRYSFGDYSWGQGTQVTVSS | high polyreactivity |
| QVQLVESGGGLVQAGGSLRLSCAASGRIFTYNVMGWYRQAPGKERELVAAIYSSGVRTSYADSVKGRFTISRDNAKNTVYLHMNSLKPEDTALYYCAADKRYHYGLLHDPSYYYDYWGQGTQVTVSS | low polyreactivity |
| QVQLVESGGGLVQAGGSLRLSCAASGRIFVANAMGWYRKAPGTERELVAAISRRGGRTYYADSVKGRFTISRDNAKNTVYLQMNSLKPEDTAVYYCAAIRSVTRFPRRYDYWGQGTPVTVSS | high polyreactivity |
| QVQLVESGGGLVQAGGSLRLSCAASGRIFVANAMGWYRQAPGKERELVAVISGSGGRTYYADSVKGRFTISRDNAKNTVYLQMNSLKPEDTAVYYCAAQKWQQGITAYEYWGQGTQVTVSS | high polyreactivity |
| QVQLVESGGGLVQAGGSLRLSCAASGRIFVAYAMGWYRQAPGKERELVAAITWSGTSTYADSVKGRFTISRDNAKNTVYLQMNSLKPEDTAVYYCAKKAIVSDQWDKYDYWGQGTQVTVSS | low polyreactivity |
| QVQLVESGGGLVQAGGSLRLSCAASGRIFVAYAMGWYRQAPGKQRELVADIDYIDGSTYYADSVKGRFTISRDNAKNTVYLQMNSLKPEDTAVYYCAVDSLYYAGYYDYWGQGTQVTVSS | high polyreactivity |
| QVQLVESGGGLVQAGGSLRLSCAASGRIFVDNAMGWYRQAPGKERELVATITSTGSTNYADSVKGRFTISRDNAKYTVYLQMNSLKPEDTAVYYCNADGKLQDYDYWGQGTQVTVSS | high polyreactivity |
| QVQLVESGGGLVQAGGSLRLSCAASGRIFVFNAMGWYRQAPGKERELVAAISRRGGSTYYADSVKGRFTISRDNAKNTVYLQMNSLKPEVTAVYYCAAVYPDYSSARYDYWGQGTQVTVSS | high polyreactivity |
| QVQLVESGGGLVQAGGSLRLSCAASGRIFVFYAMGWYRQAPGKERELVAAISKSVGPTYYADSVKGRFTISRDTAKNTVYLQMNSLKPADTAGYYCNKRSASDLWPQYGYWGQGTQVTVSS | low polyreactivity |
| QVQLVESGGGLVQAGGSLRLSCAASGRIFVFYAMGWYRQAPGKVREFVATISYSGDTTYYADSVKGRFTISRDNAKNTVYLEMNSLKPEDTAVYYCAADQVPSYYYVPLGYDSWGQGTQVTVSS | low polyreactivity |
| QVQLVESGGGLVQAGGSLRLSCAASGRIFVGDAMGWYRQAPGTERELVAAISRDGDNTFYADSVKGRFTISRDNAKNTVYLQMNSLKPEDTAVYYCAVDYWVWYGSAYAYDYYWGQGTQVTVSS | low polyreactivity |
| QVQLVESGGGLVQAGGSLRLSCAASGRIFVGNAMGWYRQAPGKERELVAAISRSGGRTYYADSVKGRFTISRDNAKNSVYLQMNSLKPEDTAVYYCAAVSLSGRYGDYDYWGQGTQVTVSS | high polyreactivity |
| QVQLVESGGGLVQAGGSLRLSCAASGRIFVGYAMGWYRQAPGKERELVAAISARGGSTYYADSVKGRFTISRDNAKNTVYLQMNSLKPEDTAVYYCAADEASSRGYYDYDYWGQGTQVTVSS | low polyreactivity |
| QVQLVESGGGLVQAGGSLRLSCAASGRIFVGYAMGWYRQAPGKERELVAAISRSGARTYYADSVKGRFTISRAIAKNTVYLQMNSLKPVDTAVYYCNTVKVLIYSWGQGTQVTVSS | high polyreactivity |
| QVQLVESGGGLVQAGGSLRLSCAASGRIFVGYAMGWYRQAPGKERELVAAITGSGGGTYYADSVKGRFTISRDNAKNTVYLQMNSLKPEDTAVYYCNARYRSYYVTQRLDYWGQGTQVTVSS | high polyreactivity |
| QVQLVESGGGLVQAGGSLRLSCAASGRIFVGYTMGWYRQAPGKERELVAAITSGGSTYYADSVKGRFTISRDNAKNTVYLQMNSLNPEDTADYYCNAAYQFDSYHLGGNRYEYWGQGTQETVSS | low polyreactivity |
| QVQLVESGGGLVQAGGSLRLSCAASGRIFVINAMGLYRQAPGKERELVADITWSGGSTYADSVKGRFTISRDTAKNTVYLQLNSLKPEDTAVYYCAAVYLRVDRYLQVYRYDYWGQGTQVTVSS | high polyreactivity |
| QVQLVESGGGLVQAGGSLRLSCAASGRIFVKNAMGWYRQAPGKERELVAAISSSSGSTYYADSVKGRFTISRDNAKNTVYLQMNSLKPEDTAVYYCATVRWYYSRPRPTTAYGYWGQGTQVTVSS | high polyreactivity |
| QVQLVESGGGLVQAGGSLRLSCAASGRIFVLNAMGWYRQAPGKERELVAAITFSGGRTYYADSVKGRFTISRDNAKNTVYLQMNSLKPEDTAVYYCATRQDWRRTYGYWGQGTQVTVSS | low polyreactivity |
| QVQLVESGGGLVQAGGSLRLSCAASGRIFVNNAMGWSRQAPGKERELVAAISKRGGSTYYADSVKGRFTISRDNAKNSVYLQMNSLKPEDTAVYYCAATPVYSGPYDYWGQGTQVTVSS | high polyreactivity |
| QVQLVESGGGLVQAGGSLRLSCAASGRIFVNYAMGWYRQAPGKERELVAAITSDGSTSYADSVKGRFTISRDNAKNTVYLQMNSLKPEDTAVYYCAKDFFEHSPVSHTYSSSNYDYWGQGTQVTVSS | low polyreactivity |

| Sequence | polyreactivity (PSR sort gate) |
| --- | --- |
| QVQLVESGGGLVQAGGSLRLSCAASGRIFVPNAMGWYSQAPGKERELVAAINWGGGSTYYADSVKGRFTISRDNAKNTVYLQMNSLKPEDTAVYYCAADHPYTIGVLPNQQFDYWGQGTQVTVSS | low polyreactivity |
| QVQLVESGGGLVQAGGSLRLSCAASGRIFVPYLMGWYRQAPGKERELVASISDSDTSTYYADSVKGRFTISRDNAKNTVYLQMNCLKPEDTAVYYCNVDYWGQGTQVTVSS | low polyreactivity |
| QVQLVESGGGLVQAGGSLRLSCAASGRIFVPYLMGWYRQAPGKERELVASISDSDTSTYYADSVKGRFTISRDNAKNTVYLQMNSLKPEDTAVYYCNVDYWGQGTQVTVSS | low polyreactivity |
| QVQLVESGGGLVQAGGSLRLSCAASGRIFVQNAMGWYRQAPGKERELVAAISISGARTYYADSVKGRFTISRDNAKNSDYLQMNRLKPEDTAVYYCNASYRDEDDYWGQGTQVTVSS | high polyreactivity |
| QVQLVESGGGLVQAGGSLRLSCAASGRIFVRNAMGWYRQAPGKERELVAAITRTGASTYYADSVKGRFTISRDNAKNTVYLQMNSLKPEDTAVYYCNKEIVWHLWYESWGQGTQVTVSS | high polyreactivity |
| QVQLVESGGGLVQAGGSLRLSCAASGRIFVRNAMGWYRQAPRKERELVADITNGGSTNYADSVKGRFTISRDNGMNTVYLQMNSLKPEDTAVYYCAADTLGVYDGDYWGQGTQVTVSS | low polyreactivity |
| QVQLVESGGGLVQAGGSLRLSCAASGRIFVRYAMGWYRQAPGKERELVAAINWRGSSTYYADSVKGRFTISRDNAKNTVYLQMTSLKPEDTAVYYCNTAQRYRVYRYDYWGQGTQVTVSS | high polyreactivity |
| QVQLVESGGGLVQAGGSLRLSCAASGRIFVSNGMGWYRQAPGKERELVAVIRYSTGSTYYADSVKGRFTFSRDNAKTTVYLQMNCLKPEDTAVYYCAARNPFFEPSEYDYWGQGTQVTVSS | low polyreactivity |
| QVQLVESGGGLVQAGGSLRLSCAASGRIFVTNAMGWYRQAPGKERELVAAITRGGSTNYADSVKGRFTISRDNAKNTVYLQMNSLKPEDTAVYYCAAKRRYYGPWSRIGYDYWGQGTQVTVSS | low polyreactivity |
| QVQLVESGGGLVQAGGSLRLSCAASGRIFVTNAMGWYRQAPGNERELVAGLNRSGDITYYADSVKGRFTISRDNAKNTVYLQMNSLKPEDTAVYYCAVDFYVYRWSPYGDVYRYDYWGQGTQVTVSS | high polyreactivity |
| QVQLVESGGGLVQAGGSLRLSCAASGRIFVVNAMGWYRQAPGKERELVAAISSSSDSTYYADSVKGRFTISRDNAKNTVYLQMNSLKPEDTAVFYCAADYHYDGYWIYDYWGQGTQVTVSS | high polyreactivity |
| QVQLVESGGGLVQAGGSLRLSCAASGRIFVVYAMGGYRQAPGKERDLVASISRGGRTYYADSVKGRFTISRDNAKNTVYLQMNSLKPEDTAVYYCAVVVYLKNRDLFDYWGQGTQVTVSS | low polyreactivity |
| QVQLVESGGGLVQAGGSLRLSCAASGRIFVVYAMGWSRQAPGKERELVAAIRSGGSTNYADSVKGRFTISRDNAKNTVYFQLNSLKPEDTAVYNCAARKWHSAYDYWGQGTQVTVSS | high polyreactivity |
| QVQLVESGGGLVQAGGSLRLSCAASGRIFVVYAMGWYRQAPGKERELVAAITGGGRTNYADSVKGRFTISRDNAKNTVYLQKNSLKPGDSAVYYCAAGTRSDARRYYYWGQGTQVTVSS | low polyreactivity |
| QVQLVESGGGLVQAGGSLRLSCAASGRIFVVYAMGWYRQAPGKERELVAAITGGGRTNYADSVKGRFTISRDNAKNTVYLQMNSLKPEDTAVYYCAAGTRSDARRYYYWGQGTQVTVSS | low polyreactivity |
| QVQLVESGGGLVQAGGSLRLSCAASGRIFVVYAMGWYRQAPGKERELVAAITYGGGSTHYADSVKGRFTISRDNAKNTVYLQMNSLKPVDTAVYYCAADVYLVKYDYWGQGTQVTVSS | low polyreactivity |
| QVQLVESGGGLVQAGGSLRLSCAASGRIFVVYAMGWYRQAPGKERELVAAITYGGGSTHYADSVKGRFTISRDNAMNTVYLQMISLKPEDTAVYYCAADLFYHSYGYEYWGQGTQVTVSS | low polyreactivity |
| QVQLVESGGGLVQAGGSLRLSCAASGRIFVYNAMGWYRQAPGKERELVAAISGGGSTYYADSVKGRFTISRDNAKNTVYLQMNSLKPEDTAVYYCNTVFSGYARGWFQPAYNYWGQGTQVTVSS | high polyreactivity |
| QVQLVESGGGLVQAGGSLRLSCAASGRIFVYNAMGWYRQAPGKERELVAGITASGGSTYYADSGKGRFTISRDNAKNTVYLQMNSLKPEDTAVYYCAATRYKRRYYYWGQGTQVTVSS | high polyreactivity |
| QVQLVESGGGLVQAGGSLRLSCAASGRIFVYNAMGWYRQAPGQERELVAAISRGGSTNYADSVKGRFTISRDNAKNTVYLQMNSLKPEDTAVYYCAADIYQYGYDYWGQGTQVTVSS | low polyreactivity |
